According to US20250011804A1 (PIONEER HI BRED INTERNATIONAL, published 2025):

B1: ZmZAG2 (other)
chain: MGRGRIEIKRIENNTSRQVTFCKRRNGLLKKAYELSVLCDAEVALIVFSSRGRLYEYANNSVKATIERYKKAHTVGSSSGPPLLEHNAQQFYQQESAKLRNQIQMLQNTNRHLVGDSVGNLSLKELKQLESRLEKGISKIRARKSELLAAEISYMAKRETELQNDHMTLRTKIEEGEQQLQQVTVARSVAAAAAAATNLELNPFLEMDTKCFFTGGPFATLDMKCFLPGSLQQMLEAQQRQMLATELNLGYQLAPPGSDAADNNPHHQF
notes: Tested as prey fusion (GAL4 AD in Y2H/HY1H, nGFP with 30x glutamine linker in BiFC); also called zag2 - Zea AGAMOUS homolog2; GRMZM2G160687
B2: ZmMADSL6 (other)
chain: MGRGRVELKRIENKINRQVTFAKRRNGLLKKAYELSVLCDAEVALIIFSNRGKLYEFSSTQSMPKTLEKYQKCSFAGPETALQNRENEQLKSSRNEYLKLKARVDNLQRTQRNLLGEDLESLGIKELEHLEKQLDSSLKHIRSTRTQHMVDQLTELQKKEQMFCEANKCLRRRLEESNQVIWQHAWEQSERHSEVQPQQLNGNNFFHPLDGAGEPTLQIGYPSEALTSSCMTTFLPPWLP
notes: positive control of the BiFC assay (full length); Tested as prey fusions; also called WT ZMMADSL6; full length ZmMADSL6
B3: ZmMADS7-LIKE (other)
chain: MGRGRVELKRIENKINRQVTFAKRRNGLLKKAYELSVLCDAEVALIVFSNRGKLYEFCSGPSITRTLERYEKNSYAGPDTAVQNKENELVQNSRNEYLKLKAKVDNLQRTQRNLLGEDLGSLGVKELDQLEKQIDSSLSHIRSTRTQHMLDQLTDLQRREQMMCEANKCLRRKLEETSNQVHGQVWEHGANLLLGYERHSSPQQAPSHVGNGLFFHPLEAAAEPTLQIGFAPEHMNNFMPAWLP
notes: Tested as prey fusions; also called zmm7 - Zea mays MADS7; GRMZM2G097059
B4: ZmMADS24 (other)
chain: MGRGKVVLQRIENKISRQVTFAKRRNGLLKKAYELSILCDAEVALVLFSHAGRLYQFSSSSNLLKTLERYQRYIYASADAAVPSSDQMQNNYQEYVKLKARVEVLQHSQRNLLGEDLALLSPSELDQLENQVDKTLKQIRSRKTQVLLDELCDLKRKEQMLQDANRVLKRKLGEFEAEAASPPQLAWQGEGGMLSHDPPQPEHFFQALESNPCLQPTYHTMDMNQQPVPAPGGCYPAWMS
notes: Tested as prey fusions; also called zmm24 - Zea mays MADS24; GRMZM2G087095
B5: ZmSF2 (other)
chain: MTRRNGCTIYVGNLPGDIREREVDDLFYKGRQCGLRMYGRIVEIDLKIPPRPPGFAFVEFEDARDAEDAIYGRDGYNFDGHRLRVELAHGGRGTSSFDRSSSYSSAGQRGASKRSDYRVMVTGLPSSASWQDLKDHMRRAGDVCFTDVYREAGATIGIADYTNYEDMKHAIRKLDDSEFRNAFSRTYVRVREYDARRSRSRSRGRNRSKSRSRSHSHSYSRSRSCSYSKSRSPRSRSASESKSPVKARSPSRSPPVSPRRDKSASRSPARSKSLPRSCSPAKSE
notes: Tested as prey fusions; also called Zea mays splicing factor 2; GRMZM2G170365
B6: ZmSFT-LIKE (other)
chain: MGSVLLPTLRLKSEVDAAIRDTLDKVLVLRFGRATDATCLHLDDILDKSSWDISKFAMVALVDMDSEEIQVYIDYFDITLVPATIFFFNAHHMKMDSGTPDHTKWIGSFSSKQDFIDVVEAIFRGAMKGKLIVSCPLPPERIPRFQLLFKDV
notes: Tested as prey fusions; also called ZmSFT-like - Zea mays mRNA splicing factor thioredoxin-like U5 snRNP; GRMZM2G086779
B7: Zmm28 transcription factor (other)
chain: MGRGPVQLRRIENKINRQVTFSKRRNGLLKKAHEISVLCDAEVALIVFSTKGKLYEYSSHSSMEGILERYQRYSFEERAVLNPSIEDQANWGDEYVRLKSKLDALQKSQRQLLGEQLSSLTIKELQQLEQQLDSSLKHIRSRKNQLMFDSISALQKKEKALTDQNGVLQKFMEAEKEKNKALMNAQLREQQNGASTSSPSLSPPIVPDSMPTLNIGPCQHRGAAESESEPSPAPAQANRGNLPPWMLRTVK
notes: MADS-box transcription factor; also called Zm00001d022088

Biological target: B7
Assay: BiFC, maize protoplasts, flow cytometry
Description: (§1) Potential interaction partners of ZMM28 were further tested in vivo with a bimolecular fluorescence complementation (BiFC) assay. Following transfection of maize protoplasts, fluorescence was measured indicating interaction between nGFP-Prey and cGFP-ZMM28 (Bait). As BiFC is prone to false-positive self-assembly independent of protein-protein interaction, flow cytometry was used to quantify the BiFC signal and reduce the occurrence of false positives. All signal comparisons were made to a negative control providing a baseline for self-assembly. The control was created by deleting 47 amino acids from the leucine zipper-like K-domain of ZMMADSL6, a protein interaction partner of ZMM28 identified from bioinformatics prediction and Y2H experiment. […] Of the 12 tested protein interactions, eight were confirmed via the BiFC assay with almost half the interactions confirmed positive in both BiFC and Y2H assays (Table 2a). Table 2: ZMM28 protein-protein interactions, transcription, direct targets.
(§2) Maize seedlings were germinated and grown in Fafard Super Fine Germination Mix for 6 days in a lighted growth chamber (30° C., 60% RH, 24 h light) and were transferred to a dark growth chamber (30° C., 60% RH, 0 h light) and grown for an additional 4 days to V1. Seedlings were sub-irrigated with deionized water. Maize protoplasts were isolated from these seedlings and were transiently transformed by PEG-mediated transfection as described by Yoo et al.63 with the addition of 0.6 M mannitol in the enzyme, WI, W5 and MMG solutions. Protoplasts were transfected with 10 pmol bait+10 pmol prey plasmid DNA per 3×10^4 cells. Protoplasts were incubated on a 12-well (1 mL WI) plate for 20 hours at RT before samples were analyzed.
(§3) BiFC signals were detected by flow cytometry performed using an Attune™ Flow Cytometer (Thermo Fisher Scientific, Waltham, MA, USA) with a Blue/Violet configuration (488 nm, 20 mW laser and a 405 nm, 50 mW laser).

Compared with B1, B2 is higher in “BiFC positive cell count” value: 125 cells out of 10,000 for the first, 4060 cells out of 10,000 for the second.

Going from B3 to B4, the “BiFC positive cell count” value rises from 438 cells out of 10,000 to 2100 cells out of 10,000.

Compared with B5, B6 is higher in “BiFC positive cell count” value: 715 cells out of 10,000 for the first, 2330 cells out of 10,000 for the second.

Biological target: the molecule itself
Assay: BiFC, maize protoplasts, flow cytometry
Description: as §1, §2, §3

B7 was tested, and the “BiFC positive cell count” value was 1010 cells out of 10,000.
